Laboratory results as given in the supplement of paper PMC12042874.
± gives the uncertainty stated by the source.

Assay: amyloid nucleation score (Sup35N fusion, yeast selection) (log enrichment); library NNK3; higher = more nucleation; inactive = no reads after selection
Summary of the method: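 Output and input plasmid inserts were sequenced by Illumina after psi-negative yeast carrying Sup35N fused to peptides of 20 random codons had been induced 24 hours with 100 μM copper sulfate and grown 7 days at 30°C on medium lacking adenine and uracil. The nucleation score is the DiMSum log enrichment of output over input reads, centred on the mode score of non-aggregating sequences. Sequences with under 100 input reads were excluded.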

| Substance | amyloid nucleation score |
| --- | --- |
| ARQYAIRWMWSVVIDGGEKS | inactive |
| LTRFQ | inactive |
| DCPLNNVTSLSHP | inactive |
| VGQFVRGLVKLCNGMYYWWL | inactive |
| GASGCLSWHFGLIV | inactive |
| ASRPFFRPVRQVSEVLPGQW | 0.058 ± 1.1 |
| GYFFGTTKKCETFTCMRWQV | inactive |
| TGLLLIRIKGH | inactive |
| AWAVEATRFILLRWGQGTWD | -0.247 ± 1.3 |
| NYLLEEEYMISCIEAITLQP | -0.345 ± 0.82 |
| MTLSVRMAEEQN | inactive |
| TLLMMYKVGYLAMAIRMGGL | inactive |
| VGHERTVSLQHCGRRLRWCW | inactive |
| CMLCTQLHNNRRKKSKMCWS | inactive |
| YSGSCNFVQVSVFKHWSGVY | inactive |
| DQMTHFYYPRNRPRFAISLA | inactive |
| CSLNLCVKDTHIHEN | inactive |
| SLVGGICVRHREDVDTQKFK | inactive |
| FKYLRCNNIIVCPVVMVHLT | 0.345 ± 0.22 |
| LLRGLAIGKKDYIYSLLLLH | -0.619 ± 1.4 |
| DVPVKNSYDFMYDCWAMPCS | inactive |
| VNLHLTVEQLSMLYRTNANV | 1.07 ± 0.14 |
| VTCWMVAVELKKIHYQCIES | inactive |
| SYMYLRGVLRYLVDMFALWI | inactive |
| AFLGEEVNSTLLKS | inactive |
| GVCRVVRSNHCMLWFRLDSS | inactive |
| TIGGNWGHWVVVIFV | 0.064 ± 0.96 |

| Substance | amyloid nucleation score |
| --- | --- |
| PCSYLCSRVFIIC | inactive |
| RKARRGCYVFLPKFSNVEFH | 1.03 ± 0.12 |
| HFPAGFFSNWFCSIYYKVY | inactive |
| FGELS | inactive |
| NFHQMW | inactive |
| FSTWNKRRMLYRHSGLFRQS | inactive |
| GKYKFSLF | inactive |
| EIQSVMLYIASTFSILYLRH | inactive |
| LSMHVVFVYIGFPHMDFDGS | inactive |
| TRMGFYKAWYTAYVWRHALL | inactive |
| LRYVGCTKMSGAMGARS | inactive |
| LNAMWAWSRLDCNWGIQRNR | inactive |
| FLMFKIPDTARELHVNSGLG | inactive |
| SGVYLSGSSLVCNTFFGTNQ | 1.78 ± 0.088 |
| SKWAFPYPA | inactive |
| GDSLMMYQQDWISEVLICLA | inactive |
| DTSGSCSILTRSRNMSFWRR | inactive |
| AWSVIMCFIWNRCKRRSS | inactive |
| PNHYSYQCALLKRSTEFRHA | inactive |
| EDAWMIVRISGC | inactive |
| VLSRGDMATFTTVMMRRDAH | inactive |
| NSGYRWEKSLSWMALLGYGC | -0.788 ± 1.1 |
| HYWVLSFLNETALIIEFWH | inactive |
| HASSHYT | inactive |
| DRVCSSRML | inactive |
| FYLYLDHVKVNWSRS | 0.989 ± 0.15 |
| GDFYASGSPVKFVRVGMDEC | inactive |

| Substance | amyloid nucleation score |
| --- | --- |
| FMDKLIESFTYCWCTFGYAH | inactive |
| ALDMVLYL | inactive |
| KGRFVLLDTTAQLNI | inactive |
| TIGEKHCCWSLCIEETLVCD | inactive |
| AFKGRLLG | inactive |
| ENCAWSRIIRRFNECNTLV | inactive |
| ANLIIVSVHFPRITTCYNNP | 1.95 ± 0.068 |
| RKSIGSLG | inactive |
| YVYSRVMECKDRHYETYFVA | inactive |
| AKTSRMNFKNNFMCQGCKWS | -0.604 ± 0.88 |
| QINMYMVNSRWVTFGIGMLS | 2.37 ± 0.055 |
| VRVVVISPGRSCRVNPSDSP | inactive |
| GRPICNYCRYVVVSVSMRRQ | inactive |
| SCPIRDSGTGSYL | inactive |
| QTSSTNPMVASKPQAQRACK | inactive |
| VFGET | inactive |
| NMTHLFMVCAKVSMPSGDGG | inactive |
| RSHRIF | inactive |
| FQFWGAGGDI | inactive |
| FIANGSDILADLFLHTSFHG | inactive |
| SEVTSRNHTGYSRSRLLGMY | inactive |
| RVGTAF | -0.517 ± 0.84 |
| KSYLVFDPWGPAKSLFYTDM | inactive |
| RYVTCNLEINTWDRVRGWHV | 1.16 ± 0.16 |
| FVMTIM | inactive |
| FCKLYINQYIYHDSVVVIVG | 2.41 ± 0.06 |
